According to patent US20030176382:

Molecular target: T1, synthetic peptide substrate ALERTFLSFPT
T1 chain: ALERTFLSFPT

B1: aspartyl proteinase purified from the adult hookworm Necator americanus (protein)
chain: GVYKIPLKRITPPMIKMLRAGTWETYVEGMRKRQLQLLKEHKVHIQDVLGYANMEYLGEITIGTPQQKFLVVLDTGSSNLWVPDDSCYKEKRPDRCLVSNCDAGLVCQVFCPDPKCCEHTREFKQVNACKDKHRFDQKNSNTYVKTNKTWAIAYGTGDARGFFGRDTVRLGAEGKDQLVINDTWFGQAEHIAEFFSNTFLDGILGLAFQELSEGGVAPPIIRAIDLGLLDQPIFTVYFENVGDKEGVYGGVFTWGGLDPDHCEDEVTYEQLTEATYWQFRLKGVSSKNFSSTAGWEAISDTGTSLNGAPRGILRSIARQYNGQYVASQGLYVVDCSKNVTVDVTIGDRNYTMTAKNLVLEIQADICIMAFFEMDMFIGPAWILGDPFIREYCNIHDIEKKRIGFAAVKH
substrate specificity assay (cleavage of a synthetic peptide substrate): the proteinase cleaved the synthetic peptide substrate ALERTFLSFPT (SEQ ID NO. 7)
